# Measured values published in article PMC4579057 (Journal of molecular biology, 2015).
# B1: APOBEC3B carboxy-terminal domain 193-CTD (Met-193 to the carboxy-terminal end) (domain or fragment)
# chain: not shown
# Biological target: the molecule itself
# Assay: SEC
protein,measurement,value
B1,stoichiometry N,2
